According to the supplement of paper PMC7125110:
± gives the standard error. For some of these results: Fewer inactive variants are shown than the library holds.

B1: glmS ribozyme (parent)
chain: AUAAAAGCGCCAGAACUACAGAAAUGUAGUUGACGAGGAGGAGGUUUAUCGAAUUUUCGGCGGAUGCCUCCAAA

What was measured:
Settings in all cases: with glucosamine-6-phosphate
glucosamine-6-phosphate [1] = variants of: B1; test: kcat; higher = faster cleavage; RNA array
Outline: (§1)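 Barcoded glmS ribozyme variants on sequenced MiSeq chips were transcribed in situ by E. coli RNA polymerase and tracked through a hybridised Cy3 probe at 37 °C. Glucosamine-6-phosphate (40 μM to 10 mM) in HEPES/KCl/Mg(OAc)2 buffer was flowed in, and tiles were imaged over ~14 h. Signals were normalised to baseline and to non-cleaving reference variants; per-tile medians were fit to one- or two-exponential decays to give kobs. kcat and KM came from weighted Michaelis–Menten fits across concentrations.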

glucosamine-6-phosphate [2] = variants of: B1; test: self-cleavage kobs at 40 uM GlcN6P; higher = faster cleavage; RNA array
Outline: as §1

glucosamine-6-phosphate [3] = variants of: B1; test: self-cleavage kobs at 640 uM GlcN6P; higher = faster cleavage; RNA array
Outline: as §1

glucosamine-6-phosphate [4] = variants of: B1; test: self-cleavage kobs at 2500 uM GlcN6P; higher = faster cleavage; RNA array
Outline: as §1

glucosamine-6-phosphate [5] = variants of: B1; test: self-cleavage kobs at 10000 uM GlcN6P; higher = faster cleavage; RNA array
Outline: as §1

glucosamine-6-phosphate [6] = variants of: B1; test: self-cleavage kobs at 160 uM GlcN6P; higher = faster cleavage; RNA array
Outline: as §1

glucosamine-6-phosphate [7] = variants of: B1; test: KM; higher = weaker cofactor use; RNA array
Outline: as §1

Variant | kcat (glucosamine-6-phosphate [1]) [s⁻¹] | self-cleavage kobs at 40 uM GlcN6P (glucosamine-6-phosphate [2]) [s⁻¹] | self-cleavage kobs at 640 uM GlcN6P (glucosamine-6-phosphate [3]) [s⁻¹] | self-cleavage kobs at 2500 uM GlcN6P (glucosamine-6-phosphate [4]) [s⁻¹] | self-cleavage kobs at 10000 uM GlcN6P (glucosamine-6-phosphate [5]) [s⁻¹] | self-cleavage kobs at 160 uM GlcN6P (glucosamine-6-phosphate [6]) [s⁻¹] | KM (glucosamine-6-phosphate [7]) [µM]
A12U A53C | 0.0145 ± 0.006 | 0.000569 ± 7.4e-05 | 0.0051 ± 0.0014 | 0.00439 ± 0.0022 | 0.0183 ± 0.0027 |  | 
A12U G13C | < 1e-05 | < 1e-05 | < 1e-05 |  |  | < 1e-05 | 
A12U G59A | 0.000207 ± 1.4e-05 |  | 3.84e-05 ± 8.7e-06 | 8.97e-05 ± 8.8e-06 | 0.000159 ± 1.8e-05 |  | 3140 ± 430
A12U G40U | 0.0088 ± 0.0017 | 0.000308 ± 2.8e-05 | 0.00235 ± 0.00038 | 0.00609 ± 0.00085 | 0.00785 ± 0.00081 | 0.000749 ± 8.6e-05 | 1410 ± 390
A12G C50G | 1.17e-05 ± 2.1e-06 |  |  |  |  |  | 
A12U G37C | 0.000148 ± 1.2e-05 |  |  | 5.79e-05 ± 8.6e-06 | 0.000104 ± 9.8e-06 | < 1e-05 | 4210 ± 790
A12U G37A | 0.0147 ± 0.0035 | 0.000169 ± 2.3e-05 | 0.00168 ± 0.00025 | 0.00456 ± 0.001 | 0.0103 ± 0.0011 | 0.000398 ± 7.4e-05 | 4700 ± 1500
A12G U54G | 0.000855 ± 0.00011 |  | 0.000179 ± 2.1e-05 | 0.000475 ± 5.8e-05 | 0.00064 ± 0.00017 | 6.55e-05 ± 1.5e-05 | 2260 ± 460
A12C C68U | 0.000589 ± 4.7e-05 |  | 0.00018 ± 1.7e-05 | 0.000436 ± 3.7e-05 | 0.000494 ± 3.6e-05 | 6.12e-05 ± 8.3e-06 | 1370 ± 220
A12U G32U | 0.000501 ± 4.8e-05 |  | 6.09e-05 ± 8.4e-06 | 0.000196 ± 2.1e-05 | 0.000345 ± 3.4e-05 | 2.63e-05 ± 1.2e-05 | 4270 ± 690
A12C U30A | 0.00751 ± 0.0021 | 5.95e-05 ± 1.5e-05 | 0.000745 ± 0.0002 | 0.0017 ± 0.00056 | 0.00447 ± 0.00074 | 0.000144 ± 3e-05 | 7100 ± 2600
C11U U30A | 0.00152 ± 0.00047 | 8.01e-05 ± 1.1e-05 | 0.000433 ± 7.8e-05 | 0.0011 ± 0.00021 | 0.0018 ± 0.00027 | 0.000252 ± 4.8e-05 | 931 ± 450
A12C A39U | 0.0119 ± 0.0024 | 0.000239 ± 1.9e-05 | 0.00219 ± 0.00025 | 0.00569 ± 0.00066 | 0.0112 ± 0.0011 | 0.000824 ± 9.8e-05 | 2230 ± 600
C11U U65G | 0.000263 ± 6.3e-05 | < 1e-05 | 6.28e-05 ± 3.1e-05 |  | 0.000227 ± 9.2e-05 |  | 2580 ± 1200
A12C G41A | 0.00163 ± 0.00065 | 7.57e-05 ± 9.1e-06 | 0.000353 ± 3.5e-05 | 0.00105 ± 0.00012 | 0.00136 ± 0.00017 | 0.000107 ± 1.7e-05 | 
A12C C71G | 0.000645 ± 0.00023 | 4.39e-05 ± 8.5e-06 | 0.000264 ± 3e-05 | 0.000424 ± 7.3e-05 | 0.00109 ± 0.00015 | 0.000153 ± 2.4e-05 | 
A12C C71U | 0.0215 ± 0.0089 | 0.000587 ± 7e-05 | 0.00448 ± 0.00062 | 0.0206 ± 0.0035 | 0.0164 ± 0.0023 | 0.00112 ± 0.00015 | 
C11U U49G | 1.33e-05 ± 1.3e-06 | < 1e-05 |  |  |  |  | 
A12G A15G | 0.000505 ± 0.00012 |  | 7.71e-05 ± 9.2e-06 | 0.000155 ± 1.5e-05 | 0.000371 ± 3.2e-05 | 2.24e-05 ± 1e-05 | 4550 ± 1800
A12G A64G | 0.000701 ± 0.00021 |  | 0.000128 ± 1.7e-05 | 0.000367 ± 5.3e-05 | 0.000537 ± 0.00017 | 6.59e-05 ± 1.7e-05 | 2560 ± 1100
A12G A64C | < 1e-05 | < 1e-05 |  |  |  |  | 
A12U U56A U65G | 0.00677 ± 0.0022 | 6.29e-05 ± 2e-05 | 0.000445 ± 0.00012 | 0.00177 ± 0.00048 | 0.00413 ± 0.00071 | 0.00018 ± 4e-05 | 6820 ± 3000
A12U U46A | 0.00538 ± 0.00031 | 0.000119 ± 1.5e-05 | 0.00161 ± 0.00033 | 0.00326 ± 0.0006 | 0.0045 ± 0.00062 |  | 1720 ± 140
A12G C67A | 0.000389 ± 8.6e-05 |  | 7.88e-05 ± 8.7e-06 | 0.000186 ± 2.1e-05 | 0.000343 ± 4.8e-05 | 4.4e-05 ± 1e-05 | 2400 ± 880
A12C G60C | < 1e-05 |  | < 1e-05 |  | < 1e-05 |  | 
G13A G21U G37U C70U | < 1e-05 |  |  | < 1e-05 |  |  | 
A12C G29U U47G | 0.00126 ± 0.00043 |  | 0.000151 ± 3.1e-05 | 0.000697 ± 0.00018 | 0.000831 ± 0.00019 |  | 4280 ± 2100
A12U C71U | 0.0948 ± 0.017 | 0.00207 ± 0.00018 | 0.0214 ± 0.0049 | 0.0611 ± 0.02 | 0.0826 ± 0.025 | 0.00891 ± 0.0017 | 1790 ± 350
